Laboratory results from the supplement of paper PMC9732359.
± gives the uncertainty stated by the source.

Assay: protein stability index of a GFP-peptide fusion (yeast GPS) (PSI 1-4); higher = more stable; sorted into four equal gates, so the index is relative within each strain
Procedure, shortened: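 Tiled 17-residue peptides from yeast proteins were fused downstream of GFP on a plasmid that also expresses Cherry, and the pooled library was carried in yeast. Mid-log cultures grown in leucine-free medium were sorted into four equal gates by GFP/Cherry fluorescence ratio. Plasmids from each gate were PCR-amplified and Illumina-sequenced, and reads were assigned to strains by barcodes. Each peptide's protein stability index is the sum, over gates, of the gate's read frequency multiplied by its gate number.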

## AAAVSGNNASDEPSRKK [SSN3]
doa10∆
  protein stability index: 2.68 ± 0.13
pdr5∆
  protein stability index: 3.05 ± 0.11
san1∆
  protein stability index: 2.78 ± 0.14
ubr1∆
  protein stability index: 3.05 ± 0.11

## AAEKSFKPPKNKYKVVR [SEC65]
doa10∆
  protein stability index: 3 ± 0.28
pdr5∆
  protein stability index: 3.08 ± 0.19
san1∆
  protein stability index: 3.05 ± 0.12
ubr1∆
  protein stability index: 3.15 ± 0.12

## AAHYNRERIKRGAHVEK [PRP8]
san1∆
  protein stability index: 2.79 ± 0.29
ubr1∆
  protein stability index: 2.77 ± 0.19

## AAKEGLALSSNISRDFQ [COR1]
doa10∆
  protein stability index: 2.71 ± 0.089
pdr5∆
  protein stability index: 3.08 ± 0.071
san1∆
  protein stability index: 3.13 ± 0.079
ubr1∆
  protein stability index: 2.76 ± 0.096

## AAKGSSTSYAIKKKDEL [RPS5]
doa10∆
  protein stability index: 3.4 ± 0.18
pdr5∆
  protein stability index: 1.82 ± 0.085
san1∆
  protein stability index: 3.35 ± 0.087
ubr1∆
  protein stability index: 3.28 ± 0.13

## AAKLRTLDYAERHGYIR [RPL2A]
doa10∆
  protein stability index: 3.38 ± 0.11
pdr5∆
  protein stability index: 3.27 ± 0.14
san1∆
  protein stability index: 2.9 ± 0.16
ubr1∆
  protein stability index: 3.37 ± 0.13

## AAMVPFIKFKLIQQVPP [CDC53]
doa10∆
  protein stability index: 2.12 ± 0.062
pdr5∆
  protein stability index: 1.92 ± 0.07
san1∆
  protein stability index: 2.17 ± 0.1
ubr1∆
  protein stability index: 2.07 ± 0.068

## AAPAAAAAEIADEPVKA [FAS2]
doa10∆
  protein stability index: 2.55 ± 0.063
pdr5∆
  protein stability index: 2.74 ± 0.067
san1∆
  protein stability index: 2.56 ± 0.078
ubr1∆
  protein stability index: 2.53 ± 0.045

## AAQTNATFLKLAAPQLV [RPT5]
doa10∆
  protein stability index: 2.62 ± 0.16
pdr5∆
  protein stability index: 3.17 ± 0.15
san1∆
  protein stability index: 2.41 ± 0.083
ubr1∆
  protein stability index: 2.86 ± 0.11

## AARYDYAVAEQCPVKSA [QCR2]
ubr1∆
  protein stability index: 1.88 ± 0.065

## AASLGDMVMATVKKGKP [RPL23A]
doa10∆
  protein stability index: 2.6 ± 0.1
pdr5∆
  protein stability index: 1.96 ± 0.087
san1∆
  protein stability index: 3.5 ± 0.099
ubr1∆
  protein stability index: 2.91 ± 0.078

## AASLIMPFLDNQVNFKN [PRE7]
pdr5∆
  protein stability index: 2.7 ± 0.081
san1∆
  protein stability index: 1.31 ± 0.17
ubr1∆
  protein stability index: 1.39 ± 0.093

## AAVETLYQDMAARHRAR [RPL20A]
doa10∆
  protein stability index: 2.96 ± 0.065
pdr5∆
  protein stability index: 3.23 ± 0.059
san1∆
  protein stability index: 2.91 ± 0.051
ubr1∆
  protein stability index: 2.91 ± 0.064

## ACDPSEIEPILMEIHNI [RGR1]
doa10∆
  protein stability index: 2.82 ± 0.13
pdr5∆
  protein stability index: 2.74 ± 0.1
san1∆
  protein stability index: 3.16 ± 0.08
ubr1∆
  protein stability index: 2.92 ± 0.067

## ACLGNDGILRLYDALEP [YGL100W/SEH1]
doa10∆
  protein stability index: 2.21 ± 0.058
pdr5∆
  protein stability index: 2.19 ± 0.048
san1∆
  protein stability index: 1.86 ± 0.065
ubr1∆
  protein stability index: 1.96 ± 0.034

## ADDAISMHLLKDWTDTF [SRB8]
doa10∆
  protein stability index: 3.12 ± 0.056
pdr5∆
  protein stability index: 2.94 ± 0.058
san1∆
  protein stability index: 2.94 ± 0.044
ubr1∆
  protein stability index: 2.95 ± 0.065

## ADEQKRSTDVWYEASTW [ARP7]
doa10∆
  protein stability index: 2.36 ± 0.06
pdr5∆
  protein stability index: 2.55 ± 0.049
san1∆
  protein stability index: 2.78 ± 0.052
ubr1∆
  protein stability index: 2.73 ± 0.048

## ADGQTLFAGYTDNVIRV [ASC1]
doa10∆
  protein stability index: 1.85 ± 0.055
pdr5∆
  protein stability index: 2.16 ± 0.052
san1∆
  protein stability index: 2.22 ± 0.063
ubr1∆
  protein stability index: 2.35 ± 0.057

## ADKNCAKLHRISPKIWC [PUP1]
doa10∆
  protein stability index: 2.09 ± 0.055
pdr5∆
  protein stability index: 2.1 ± 0.061
san1∆
  protein stability index: 1.94 ± 0.059
ubr1∆
  protein stability index: 2.14 ± 0.05

## ADLPGSYNLEYIESKFC [YMR129W/POM152]
doa10∆
  protein stability index: 3.16 ± 0.13
pdr5∆
  protein stability index: 3.38 ± 0.19
san1∆
  protein stability index: 3.13 ± 0.14
ubr1∆
  protein stability index: 3.24 ± 0.093

## ADQEQAKLIRSAIEHTT [RPO21]
doa10∆
  protein stability index: 3.19 ± 0.12
pdr5∆
  protein stability index: 2.96 ± 0.15
san1∆
  protein stability index: 2.82 ± 0.1
ubr1∆
  protein stability index: 2.84 ± 0.1

## ADVTSNIDSSAQFTFGK [YOR098C/NUP1]
doa10∆
  protein stability index: 3.05 ± 0.093
pdr5∆
  protein stability index: 3.25 ± 0.087
san1∆
  protein stability index: 2.89 ± 0.091
ubr1∆
  protein stability index: 3.13 ± 0.057

## ADYWTHAYRDVLAQYHE [SNF6]
doa10∆
  protein stability index: 3.02 ± 0.071
pdr5∆
  protein stability index: 3.23 ± 0.08
san1∆
  protein stability index: 3.06 ± 0.058
ubr1∆
  protein stability index: 2.81 ± 0.049

## AEEFVAGVSHGTLGEIF [SMX3]
ubr1∆
  protein stability index: 3.57 ± 0.28

## AEKLGSKKAEKTGTKPA [RPL4A]
doa10∆
  protein stability index: 3.14 ± 0.067
pdr5∆
  protein stability index: 3.08 ± 0.07
san1∆
  protein stability index: 3.13 ± 0.05
ubr1∆
  protein stability index: 3.06 ± 0.072

## AEKYQERSLRQKYNLLH [SNM1]
doa10∆
  protein stability index: 2.32 ± 0.057
pdr5∆
  protein stability index: 2.73 ± 0.074
san1∆
  protein stability index: 3.23 ± 0.067
ubr1∆
  protein stability index: 3.12 ± 0.083

## AEQPLPVSPLDIYSDEA [RPS2]
doa10∆
  protein stability index: 2.79 ± 0.07
pdr5∆
  protein stability index: 2.97 ± 0.064
san1∆
  protein stability index: 2.9 ± 0.038
ubr1∆
  protein stability index: 2.92 ± 0.052
